Laboratory results as given in patent US8067187.

Columns and labels:
[1] = target: T1, recombinant human β2-glycoprotein I, P02749
T1 chain: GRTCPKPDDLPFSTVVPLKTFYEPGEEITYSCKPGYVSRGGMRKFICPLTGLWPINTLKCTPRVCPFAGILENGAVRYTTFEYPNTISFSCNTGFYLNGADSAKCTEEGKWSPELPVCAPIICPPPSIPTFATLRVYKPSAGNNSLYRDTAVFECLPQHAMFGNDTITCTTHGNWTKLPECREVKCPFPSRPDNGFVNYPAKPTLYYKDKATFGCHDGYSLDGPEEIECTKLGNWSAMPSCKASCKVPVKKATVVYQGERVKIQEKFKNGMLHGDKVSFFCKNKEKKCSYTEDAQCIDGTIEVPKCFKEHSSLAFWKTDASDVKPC

[2] = target: T2, heat-denatured misfolded chicken ovalbumin, P01012
T2 chain: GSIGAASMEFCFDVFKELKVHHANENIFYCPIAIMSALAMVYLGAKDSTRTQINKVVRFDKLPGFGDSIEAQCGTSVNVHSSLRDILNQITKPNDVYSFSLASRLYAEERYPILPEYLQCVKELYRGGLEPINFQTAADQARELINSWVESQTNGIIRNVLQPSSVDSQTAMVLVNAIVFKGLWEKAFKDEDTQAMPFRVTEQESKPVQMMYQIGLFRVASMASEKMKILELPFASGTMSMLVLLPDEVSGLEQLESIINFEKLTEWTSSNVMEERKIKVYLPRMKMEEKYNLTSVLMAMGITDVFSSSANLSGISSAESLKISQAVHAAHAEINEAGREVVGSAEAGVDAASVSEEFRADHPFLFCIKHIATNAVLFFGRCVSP

[3] = target: T3, β2-glycoprotein I purified from fresh human plasma, P02749
T3 chain: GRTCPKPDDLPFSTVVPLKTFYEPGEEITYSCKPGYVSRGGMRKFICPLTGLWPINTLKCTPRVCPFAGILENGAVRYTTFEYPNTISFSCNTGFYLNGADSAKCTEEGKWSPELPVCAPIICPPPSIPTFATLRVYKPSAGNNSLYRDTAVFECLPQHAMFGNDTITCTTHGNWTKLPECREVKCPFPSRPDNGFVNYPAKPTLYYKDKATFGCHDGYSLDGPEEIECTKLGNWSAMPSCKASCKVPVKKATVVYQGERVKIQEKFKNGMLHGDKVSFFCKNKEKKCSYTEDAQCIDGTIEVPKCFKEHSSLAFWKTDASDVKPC

B1: tissue-type plasminogen activator (tPA, Actilyse, Boehringer-Ingelheim) (protein)
chain: SYQVICRDEKTQMIYQQHQSWLRPVLRSNRVEYCWCNSGRAQCHSVPVKSCSEPRCFNGGTCQQALYFSDFVCQCPEGFAGKCCEIDTRATCYEDQGISYRGTWSTAESGAECTNWNSSALAQKPYSGRRPDAIRLGLGNHNYCRNPDRDSKPWCYVFKAGKYSSEFCSTPACSEGNSDCYFGNGSAYRGTHSLTESGASCLPWNSMILIGKVYTAQNPSAQALGLGKHNYCRNPDGDAKPWCHVLKNRRLTWEYCDVPSCSTCGLRQYSQPQFRIKGGLFADIASHPWQAAIFAKHRRSPGERFLCGGILISSCWILSAAHCFQERFPPHHLTVILGRTYRVVPGEEEQKFEVEKYIVHKEFDDDTYDNDIALLQLKSDSSRCAQESSVVRTVCLPPADLQLPDWTECELSGYGKHEALSPFYSERLKEAHVRLYPSSRCTSQHLLNRTVTDNMLCAGDTRSGGPQANLHDACQGDSGGPLVCLNDGRMTLVGIISWGLGCGQKDVPGVYTKVTNYLDWIRDNMRP
[1]
  Plg-activation assay: tPA-mediated conversion of Plg to plasmin, chromogenic substrate S-2251: Recombinant β2GPI, but not β2GPI purified from fresh plasma stimulate tPA-mediated conversion of Plg to plasmin
[2]
  tPA protease activity, chromogenic tPA substrate S-2765: At 80-fold dilution, misfolded OVA stimulated tPA protease activity when compared to PBS/DMSO buffer control
[3]
  Plg-activation assay: tPA-mediated conversion of Plg to plasmin, chromogenic substrate S-2251: Recombinant β2GPI, but not β2GPI purified from fresh plasma stimulate tPA-mediated conversion of Plg to plasmin
